± gives the standard deviation.
Assay: collision cross section of modified peptide (TIMS, N2, iRT-aligned); higher = larger / more extended gas-phase ion
How it was run: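 Collision cross section was derived from the Mason-Schamp equation. Each value averages 1–3 technical replicates of the most abundant feature per charge state, measured on a timsTOF Pro/HT in dda-PASEF mode (nitrogen, ~2.4 mbar) after a 120-min nanoflow C18 gradient at 60 °C. Synthetic peptide pools (~100 fmol/µL in 2% acetonitrile/0.1% formic acid, iRT standard spiked 1:40) were identified with MaxQuant, and 1/K0 was calibrated with three reference ions and aligned run-wise to the median iRT peptide deviation.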

[1] = charge state: 2, modification: Trimethyl (K)
[2] = charge state: 3, modification: Trimethyl (K)
[3] = charge state: 2, modification: hydroxyisobutyryl
[4] = charge state: 3, modification: hydroxyisobutyryl
[5] = charge state: 2, modification: Acetyl (K)
[6] = charge state: 3, modification: Acetyl (K)
[7] = charge state: 2, modification: Butyryl
[8] = charge state: 3, modification: Butyryl
[9] = charge state: 2, modification: Crotonyl
[10] = charge state: 3, modification: Crotonyl
[11] = charge state: 3, modification: Dimethyl (K)
[12] = charge state: 2, modification: Formyl
[13] = charge state: 3, modification: Formyl
[14] = charge state: 2, modification: Glutarylation
[15] = charge state: 3, modification: Glutarylation
[16] = charge state: 2, modification: GlyGly (K)
[17] = charge state: 3, modification: GlyGly (K)
[18] = charge state: 3, modification: Malonyl
[19] = charge state: 2, modification: Methyl (K)
[20] = charge state: 3, modification: Methyl (K)
[21] = charge state: 2, modification: Succinyl
[22] = charge state: 3, modification: Succinyl

## VGEFSGANKEK [_VGEFSGANK(Trimethyl (K))EK_]
[1]
  collision cross section: 384.48 ± 1.7 Å²
[2]
  collision cross section: 437.18 ± 7.5 Å²

## VGEFSGANKEK [_VGEFSGANK(hydroxyisobutyryl)EK_]
[3]
  collision cross section: 364.17 ± 0.9 Å²
[4]
  collision cross section: 444.77 Å²

## VGIDTPDIDIHGPEGKLK [_VGIDTPDIDIHGPEGK(Acetyl (K))LK_]
[5]
  collision cross section: 490.05 Å²
[6]
  collision cross section: 536.56 ± 1.2 Å²

## VGIDTPDIDIHGPEGKLK [_VGIDTPDIDIHGPEGK(Butyryl)LK_]
[7]
  collision cross section: 496.6 ± 1 Å²
[8]
  collision cross section: 542.04 ± 1.1 Å²

## VGIDTPDIDIHGPEGKLK [_VGIDTPDIDIHGPEGK(Crotonyl)LK_]
[9]
  collision cross section: 496.91 Å²
[10]
  collision cross section: 540.02 ± 1.3 Å²

## VGIDTPDIDIHGPEGKLK [_VGIDTPDIDIHGPEGK(Dimethyl (K))LK_]
[11]
  collision cross section: 537.38 ± 0.61 Å²

## VGIDTPDIDIHGPEGKLK [_VGIDTPDIDIHGPEGK(Formyl)LK_]
[12]
  collision cross section: 485.77 ± 1.5 Å²
[13]
  collision cross section: 533.35 ± 1.3 Å²

## VGIDTPDIDIHGPEGKLK [_VGIDTPDIDIHGPEGK(Gluratylation)LK_]
[14]
  collision cross section: 497.76 ± 0.79 Å²
[15]
  collision cross section: 542.69 ± 1.1 Å²

## VGIDTPDIDIHGPEGKLK [_VGIDTPDIDIHGPEGK(GlyGly (K))LK_]
[16]
  collision cross section: 467.27 Å²
[17]
  collision cross section: 525.5 ± 1.3 Å²

## VGIDTPDIDIHGPEGKLK [_VGIDTPDIDIHGPEGK(Malonyl)LK_]
[18]
  collision cross section: 540.98 Å²

## VGIDTPDIDIHGPEGKLK [_VGIDTPDIDIHGPEGK(Methyl (K))LK_]
[19]
  collision cross section: 463.74 Å²
[20]
  collision cross section: 542.59 ± 0.45 Å²

## VGIDTPDIDIHGPEGKLK [_VGIDTPDIDIHGPEGK(Succinyl)LK_]
[21]
  collision cross section: 494.78 Å²
[22]
  collision cross section: 540.29 ± 1.1 Å²

## VGIDTPDIDIHGPEGKLK [_VGIDTPDIDIHGPEGK(Trimethyl (K))LK_]
[2]
  collision cross section: 543.29 ± 0.9 Å²

## VGIDTPDIDIHGPEGKLK [_VGIDTPDIDIHGPEGK(hydroxyisobutyryl)LK_]
[3]
  collision cross section: 500.35 ± 0.99 Å²
[4]
  collision cross section: 542.95 ± 2 Å²

## VGLQVVAVKAPGFGDNR [_VGLQVVAVK(Acetyl (K))APGFGDNR_]
[5]
  collision cross section: 442.66 ± 2 Å²
[6]
  collision cross section: 493.83 ± 2.3 Å²

## VGLQVVAVKAPGFGDNR [_VGLQVVAVK(Butyryl)APGFGDNR_]
[7]
  collision cross section: 450.45 ± 0.52 Å²
[8]
  collision cross section: 500.38 ± 1.9 Å²

## VGLQVVAVKAPGFGDNR [_VGLQVVAVK(Crotonyl)APGFGDNR_]
[9]
  collision cross section: 449.86 ± 0.94 Å²
[10]
  collision cross section: 499.08 ± 1.6 Å²

## VGLQVVAVKAPGFGDNR [_VGLQVVAVK(Dimethyl (K))APGFGDNR_]
Charge state: 2, modification: Dimethyl (K)
  collision cross section: 465.4 ± 1.7 Å²
[11]
  collision cross section: 490.92 ± 1.2 Å²

## VGLQVVAVKAPGFGDNR [_VGLQVVAVK(Formyl)APGFGDNR_]
[12]
  collision cross section: 440.17 ± 1.2 Å²
[13]
  collision cross section: 529.54 ± 3 Å²

## VGLQVVAVKAPGFGDNR [_VGLQVVAVK(Gluratylation)APGFGDNR_]
[14]
  collision cross section: 447.64 ± 0.95 Å²
[15]
  collision cross section: 510.32 ± 1 Å²

## VGLQVVAVKAPGFGDNR [_VGLQVVAVK(GlyGly (K))APGFGDNR_]
[16]
  collision cross section: 471.7 ± 1.6 Å²
[17]
  collision cross section: 536.75 ± 1.1 Å²

## VGLQVVAVKAPGFGDNR [_VGLQVVAVK(Malonyl)APGFGDNR_]
Charge state: 2, modification: Malonyl
  collision cross section: 445.13 ± 1 Å²
[18]
  collision cross section: 541.36 ± 0.027 Å²

## VGLQVVAVKAPGFGDNR [_VGLQVVAVK(Methyl (K))APGFGDNR_]
[19]
  collision cross section: 454.02 ± 2.2 Å²
[20]
  collision cross section: 491.77 ± 3.2 Å²

## VGLQVVAVKAPGFGDNR [_VGLQVVAVK(Succinyl)APGFGDNR_]
[21]
  collision cross section: 449.31 ± 0.96 Å²
[22]
  collision cross section: 542.29 ± 1.1 Å²

## VGLQVVAVKAPGFGDNR [_VGLQVVAVK(Trimethyl (K))APGFGDNR_]
[1]
  collision cross section: 473 Å²
[2]
  collision cross section: 497.24 ± 1.6 Å²

## VGLQVVAVKAPGFGDNR [_VGLQVVAVK(hydroxyisobutyryl)APGFGDNR_]
[3]
  collision cross section: 453.58 ± 0.89 Å²
[4]
  collision cross section: 502.92 ± 2.8 Å²

## VGTASVLQPVKK [_VGTASVLQPVK(Acetyl (K))K_]
[5]
  collision cross section: 379.84 ± 0.47 Å²

## VGTASVLQPVKK [_VGTASVLQPVK(Biotin)K_]
Charge state: 2, modification: Biotin
  collision cross section: 406.39 ± 1.1 Å²

— the supplement of paper PMC10598134
